According to PMC9463536 (The Journal of Biological Chemistry, 2022):

Molecular target: T1, human claudin-4, biotinylated with NHS-PEG4-biotin (human, UniProt O14493 1-209)
T1 construct: also called biotinylated claudin-4
T1 sequence: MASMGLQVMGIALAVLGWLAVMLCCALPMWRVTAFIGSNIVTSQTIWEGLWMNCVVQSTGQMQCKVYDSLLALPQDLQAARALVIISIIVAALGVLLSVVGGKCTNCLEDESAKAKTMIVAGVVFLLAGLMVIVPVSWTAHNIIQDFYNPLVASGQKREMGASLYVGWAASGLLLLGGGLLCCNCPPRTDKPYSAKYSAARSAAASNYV
Test: BLI
Conditions: both partners purified

B1: cCpE^1 (cCpE^[change]) (domain or fragment)
chain: KEILDLAAATERLNLTDALNSNPAGNLYDWRSSNSYPWTQKLNLHLTITATGQKYRILASKIVDFNIYSNNFNNLVKLEQSLGDGVKDHYVDISLDAGQYVLVMKANSSYSGNYPYSILFQKF
- Kd: ~3 nM
